Experimental data published in patent US20150299301A1 (published 2015).

Biological target: T1, mouse serum albumin (mouse, UniProt P07724 25-608)
T1 construct: also called MSA; mouse albumin
Test: phage on blotted plasma (1/10)
Protocol: A SDS-PAGE was run for plasma (1/10 dilution) from different species (baboon, pig, hamster, human, rat. mouse and rabbit) and blotted on a nitrocellulose membrane. Phages were prepared for clones MSA 21. […] Phages were allowed to bind to the nitrocellulose blotted serum albumins and unbound phages were washed away. Binding was detected with a anti-M13 polyclonal antibody coupled to HRP. DAP was used as a substrate for detection.

T1 sequence (P07724 25-608 limits assumed): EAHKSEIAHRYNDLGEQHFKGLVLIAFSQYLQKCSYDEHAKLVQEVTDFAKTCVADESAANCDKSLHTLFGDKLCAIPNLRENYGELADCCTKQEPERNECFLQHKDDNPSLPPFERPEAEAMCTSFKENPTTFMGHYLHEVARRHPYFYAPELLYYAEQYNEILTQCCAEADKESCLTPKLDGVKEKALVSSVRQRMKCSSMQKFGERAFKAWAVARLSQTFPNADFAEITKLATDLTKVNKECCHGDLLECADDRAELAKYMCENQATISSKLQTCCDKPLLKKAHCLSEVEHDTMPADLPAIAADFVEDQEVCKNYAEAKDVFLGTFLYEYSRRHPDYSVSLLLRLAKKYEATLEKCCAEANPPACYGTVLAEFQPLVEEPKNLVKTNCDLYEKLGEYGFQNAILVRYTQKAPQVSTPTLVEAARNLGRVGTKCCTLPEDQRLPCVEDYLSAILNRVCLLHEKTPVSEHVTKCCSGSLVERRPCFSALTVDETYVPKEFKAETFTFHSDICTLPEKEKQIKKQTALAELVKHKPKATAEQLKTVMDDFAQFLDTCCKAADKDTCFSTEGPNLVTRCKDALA

B1: MSA24 (VHH)
VHH: QVQLQESGGGLVQPGNSLRLSCAASGFTFRNFGMSWVRQAPGKEPEWVSSISGSGSNTIYADSVKDRFTISRDNAKSTLYLQMNSLKPEDTAVYYCTIGGSLSRSSQGTQVTVSS
binding result: binds
